Reference: patent US20200157226A1 (DRAGONFLY THERAPEUTICS, published 2020)

Legend:
[1] = target: T1, human NKG2D expressed on cells (primary human NK cells); EL4 mouse lymphoma cell lines engineered to express … (human, UniProt P26718 1-216); assay: flow cytometry on primary human NK cells
T1 construct: whole, on cells; also called NKG2D expressed on EL4 cells; NKG2D on primary human NK cells
T1 sequence (looked up): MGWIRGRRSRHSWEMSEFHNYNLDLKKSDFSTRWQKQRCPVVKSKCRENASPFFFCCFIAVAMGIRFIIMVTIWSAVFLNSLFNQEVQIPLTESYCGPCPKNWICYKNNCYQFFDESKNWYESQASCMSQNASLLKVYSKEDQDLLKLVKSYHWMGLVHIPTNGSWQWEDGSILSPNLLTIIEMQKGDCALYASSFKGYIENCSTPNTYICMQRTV
Procedure: Primary human NK cells and EL4 mouse lymphoma cell lines engineered to express human NKG2D were used to test binding affinity of trispecific binding proteins (TriNKETs) to NKG2D. Each of the TriNKETs tested contains an NKG2D-binding domain, a tumor-associated antigen binding domain (e.g., a 5T4-binding domain), and an Fc domain that binds to CD16 as shown in FIG. 1. TriNKETs were diluted to 20 μg/mL, and then diluted serially. The binding of the TriNKETs or the parental anti-5T4 monoclonal antibodies to NKG2D were detected using fluorophore-conjugated anti-human IgG secondary antibodies. Cells were analyzed by flow cytometry, and fold-over-background (FOB) was calculated by normalizing the mean fluorescence intensity (MFI) to human recombinant IgG1 staining control.

[2] = target: T2, 5T4 expressed on human cancer cell lines (human, UniProt Q13641 32-420); assay: flow cytometry on 5T4-expressing human cancer cell lines
T2 construct: the assays used endogenous 5T4 on BxPC3, H146, H1975, HCT116, MCF7 and N87 cells; also called tumor-associated 5T4 antigen; human trophoblast glycoprotein 5T4
T2 sequence: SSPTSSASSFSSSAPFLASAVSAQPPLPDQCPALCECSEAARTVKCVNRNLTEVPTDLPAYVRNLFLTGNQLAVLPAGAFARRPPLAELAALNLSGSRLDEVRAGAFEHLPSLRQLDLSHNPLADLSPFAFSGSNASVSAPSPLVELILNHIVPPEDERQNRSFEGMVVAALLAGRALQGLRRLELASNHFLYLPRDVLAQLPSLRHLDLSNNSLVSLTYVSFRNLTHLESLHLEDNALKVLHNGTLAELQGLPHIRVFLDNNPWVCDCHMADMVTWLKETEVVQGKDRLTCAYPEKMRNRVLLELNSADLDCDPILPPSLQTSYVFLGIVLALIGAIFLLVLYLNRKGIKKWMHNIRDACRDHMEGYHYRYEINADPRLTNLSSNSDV
Procedure: (§1) Human cancer cell lines (BxPC3, H146, H1975, HCT116, MCF7 and N87) expressing the tumor-associated 5T4 antigen were used to assay the binding of 5T4-targeting TriNKETs to the antigen. In separate experiments, the TriNKETs or the parental anti-5T4 monoclonal antibodies were incubated with the each of the cell lines, and the binding of the TriNKETs or anti-5T4 monoclonal antibodies to the cells was detected using fluorophore-conjugated anti-human IgG secondary antibodies. Flow cytometry was used to analyze the binding of the TriNKETs or anti-5T4 monoclonal antibodies to the cells, and fold-over-background (FOB) was calculated by normalizing the mean fluorescence intensity (MFI) to human recombinant IgG1 staining control.

[3] = target: T2, 5T4 expressed on human cancer cell lines; assay: flow cytometry on BxPC3 cells
Procedure: as §1

B1: anti-5T4 monoclonal antibody 5T4R (antibody, V domains shown)
VH: EVHLLESGGGLVHPGGSLRLSCAASGFTFRSDAMHWVRQAPGKGLEWVSGVSGSGGSPYYADSVKGRFTISRDDSKTTLYLQMNSLRAEDTAVYYCATGGSIAGSYYYYPMDVWGQGTTVTVSS
VL: DIQMTQSPSSLSASVGDRVTITCQASQDISNYLNWYQQKPGKAPKLLIYAASTLQIGVPSRFSGSGSGTDFTFTISSLQPEDFATYYCQQANSFPLTFGGGTKVEIK
notes: detected with anti-human IgG secondary antibody; also called parental anti-5T4R monoclonal antibody; 5T4 monoclonal antibody (mAb)
binding result [1]: no binding | binding result [2]: binds

B2: anti-5T4 monoclonal antibody 5T4A (antibody, V domains shown)
VH: EVQLVESGGGLVQPGGSLRLSCAASGFTFSNYWMNWVRQAPGKGLEWVGEIRLKSDKYATYYAESVKGRFTISRDDSKNSLYLQMNNLKTEDTGVYYCARRRGYYGSAYGMDYWGQGTLVTVSS
VL: DIQMTQSPSSLSASVGDRVTITCKASQDINSYLSWFQQKPGKAPKILIYRANRLVDGVPSRFSGSGSGKDFTFTISSLQPEDIATYYCLQYDFLPLTFGGGTKVEIK
notes: detected with anti-human IgG secondary antibody; also called 5T4 monoclonal antibody (mAb)
binding result [3]: binds | binding result [1]: no binding
